T1: chymase (recombinant) (UniProt P23946 P23946:22-247)
T1 sequence: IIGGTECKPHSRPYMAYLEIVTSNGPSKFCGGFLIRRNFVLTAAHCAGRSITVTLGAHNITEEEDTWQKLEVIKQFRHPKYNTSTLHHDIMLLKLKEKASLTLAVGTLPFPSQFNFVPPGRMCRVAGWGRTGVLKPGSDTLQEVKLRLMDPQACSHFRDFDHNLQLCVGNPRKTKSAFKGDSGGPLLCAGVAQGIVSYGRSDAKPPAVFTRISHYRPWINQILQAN

T2: chymase (Homo sapiens, UniProt P23946)
T2 sequence (P23946 22-247): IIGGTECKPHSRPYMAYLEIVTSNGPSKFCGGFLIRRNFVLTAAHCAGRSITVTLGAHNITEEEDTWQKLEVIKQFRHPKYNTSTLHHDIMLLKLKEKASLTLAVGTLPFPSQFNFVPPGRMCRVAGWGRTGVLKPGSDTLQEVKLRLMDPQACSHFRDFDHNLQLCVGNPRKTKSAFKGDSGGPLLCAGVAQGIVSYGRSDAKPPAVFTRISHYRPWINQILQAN

T3: chymase (recombinant, manufactured by SIGMA) (Homo sapiens, UniProt P23946)
T3 construct: purchased SIGMA; host or cells: yeast
T3 sequence (P23946 22-247): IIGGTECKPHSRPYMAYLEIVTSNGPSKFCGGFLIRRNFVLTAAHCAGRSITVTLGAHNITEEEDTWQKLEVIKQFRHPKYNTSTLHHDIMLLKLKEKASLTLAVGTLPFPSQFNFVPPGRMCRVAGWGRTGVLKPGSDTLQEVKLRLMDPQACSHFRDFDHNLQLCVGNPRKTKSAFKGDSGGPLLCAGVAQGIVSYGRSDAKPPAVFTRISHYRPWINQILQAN

B1: SEQ 46 (ssRNA)
RNA: GGGAGCAGGAGAGAGGUCAGAUGGGACAGAUAGAGUUAAAGUCCGUUACGUGGCCUAUGCGUGCUAGUGUGA
modifications: 2'-F pyrimidines
B2: SEQ 42 (ssRNA)
RNA: GGGAGCAGGAGAGAGGUCAGAUGCGUGAUCGUGCAAGGCGGAUAGAGUUAAGGCCUAUGCGUGCUAGUGUGA
modifications: 2'-F pyrimidines
B3: SEQ 40 (ssRNA)
RNA: GGGAGCAGGAGAGAGGUCAGAUGAACGGAUAGAGCUAAGAGUUCGUCAGAGGGGCCUAUGCGUGCUAGUGUGA
modifications: 2'-F pyrimidines
B4: SEQ 47 (ssRNA)
RNA: GGGAGCAGGAGAGAGGUCAGAUGGUGAUAGAUAGAGUUAAAAUCGCUGAAUGGCCUAUGCGUGCUAGUGUGA
modifications: 2'-F pyrimidines
B5: SEQ 45 (ssRNA)
RNA: GGGAGCAGGAGAGAGGUCAGAUGGACCACCGAUGGGCAAGAUAGAGUUAAAUGCCUAUGCGUGCUAGUGUGA
modifications: 2'-F pyrimidines
B6: GGGACGGUAGGAAUUCUCGUUCCUGACAGCAUUUGAGAUAGAUUUAAACAAACGCACAUAGAAGAGCGGCCGC (nucleic acid)
chain: GGGACGGUAGGAAUUCUCGUUCCUGACAGCAUUUGAGAUAGAUUUAAACAAACGCACAUAGAAGAGCGGCCGC
modifications: chemistry not given here
B7: GGGACGGUAGGAAUUCCGCAACCAUCCCGUAACUAUGGUUAGAUAGAGUUAAAAACCAUAGAAGAGCGGCCGC (nucleic acid)
chain: GGGACGGUAGGAAUUCCGCAACCAUCCCGUAACUAUGGUUAGAUAGAGUUAAAAACCAUAGAAGAGCGGCCGC
modifications: chemistry not given here
B8: GGGACGGUAGGAAUUCGUCCAUUCUACAGAUAGAGAUAAAGUAGAAUUUAACAAAACAUAGAAGAGCGGCCGC (nucleic acid)
chain: rGrGrGrAfCrGrGfUrArGrGrArAfUfUfCrGfUfCfCrAfUfUfCfUrAfCrArGrAfUrArGrArGrAfUrArArArGfUrArGrArAfUfUfUrArAfCrArArArAfCrAfUrArGrArArGrArGfCrGrGfCfCrGfC
B9: 48 (nucleic acid)
chain: GGGAGCAGGAGAGAGGUCAGAUGUGAAGAUAGAGAUAAAUCACAUACAGUCGGCCUAUGCGUGCUAGUGUGA
modifications: aptamer; 2'-fluoro at CU, RNA at AG, backbone not given here
B10: 41 (nucleic acid)
chain: GGGAGCAGGAGAGAGGUCAGAUGGUGAGAUAGAGUUAAACACCACAAUAGUAGCCUAUGCGUGCUAGUGUGA
modifications: aptamer; 2'-fluoro at CU, RNA at AG, backbone not given here
B11: 38 (nucleic acid)
chain: GGGAGCAGGAGAGAGGUCAGAUGGAUAGAGUUAAGAUCUGGCUGGCGCAUUAGCCUAUGCGUGCUAGUGUGA
modifications: aptamer; 2'-fluoro at CU, RNA at AG, backbone not given here
B12: 40 (nucleic acid)
chain: GGGAGCAGGAGAGAGGUCAGAUGAACGGAUAGAGCUAAGAGUUCGUCAGAGGGGCCUAUGCGUGCUAGUGUGA
modifications: 2'-fluoro at CU, RNA at AG, backbone not given here
B13: 47 (nucleic acid)
chain: GGGAGCAGGAGAGAGGUCAGAUGGUGAUAGAUAGAGUUAAAAUCGCUGAAUGGCCUAUGCGUGCUAGUGUGA
modifications: aptamer; 2'-fluoro at CU, RNA at AG, backbone not given here

Oligonucleotides are written 5' to 3', each unit as a sugar letter and its base; * is a phosphorothioate linkage, no mark a phosphodiester; rarer units and linkages stand in square brackets, end groups in braces. Plain capitals give the bases only. r = 2'-OH (RNA); f = 2'-fluoro

The target in the first data set is T1, chymase (recombinant). The data set is described as follows: inhibition; SPR ++ (Table 2). The settings on record: tags: SIGMA, expressed in yeast. Here is the method:
Here, Suc is a protecting succinyl group, and MCA is a 4-methylcoumaryl-7-amide group; upon cleavage of the C-terminal side of phenylalanine, AMC (7-amino-4-methyl-coumarine) is released. By detecting the fluorescence of this AMC, the enzyme activity of chymase can be determined. The assay was performed using a 96-well plate (F16 Black Maxisorp Fluoronunc, manufactured by Nunc), with a reaction mixture volume of 100 μL, in solution C as a buffer solution. First, each nucleic acid was serially diluted to 0.0027-2 μM concentrations in solution C to obtain 50 μL solutions. After 10 μL of the 1 mM substrate prepared in solution C was added thereto, the plate was set to the microplate reader SpectraMax190 (manufactured by Molecular Devices Corporation), and incubated at 37° C. for 5 minutes. Separately, 0.05 μg (or 0.005 μg) of chymase (recombinant, manufactured by SIGMA) was diluted in solution C to obtain a 40 μL chymase solution, and incubated at 37° C. for 5 minutes. The chymase solution was added to the mixture of the nucleic acid and substrate to initiate an enzyme reaction. The final chymase concentration in the reaction mixture was 16.7 nM (or 1.67 nM), the final substrate concentration being 100 μM. The plate containing the reaction mixture was set to the microplate reader SpectraMax190 (manufactured by Molecular Devices Corporation), and examined for time-dependent changes in the fluorescence intensity at 37° C. for 5 minutes (or 30 minutes) (excitation wavelength 380 nm, detection wavelength 460 nm). A linear approximation of the increase in the fluorescence of the AMC released from the substrate by chymase activity was generated, and its slope was taken as the initial velocity […]. For control, samples were treated and analyzed in the same manner in two cases: use of a 30N or 40N (a nucleotide of 30 or 40 consecutive bases represented by N; N is A, G, C or T) nucleic acid pool (negative control), and use of chymostatin, a known chymotrypsin-like serine protease inhibitor (positive control). Taking the initial reaction velocity without the nucleic acid and inhibitor (V_0) as a 100% enzyme activity, the inhibitory rate of each test substance was calculated using the following equation: […]
Take B1: the concentration for half-maximal inhibition (IC50) (as a rule, the concentration that inhibits the measured activity by half) was 38 nM.
Still for that read-out and setting: as for B2, the figure is 124 nM.
Turning to B3, the IC50 is 140 nM.
The same measure, in the same setting: with B4 the figure was 58 nM; with B5, 74 nM.

Another data set deals with T2, chymase. As to the kind of experiment: Surface plasmon resonance (Biacore T100), aptamer immobilized on SA chip, chymase injected as analyte. The data set is classed as binding. The settings on record: Table 1; about 1000 RU nucleic acid immobilized, chymase 0.2 μM analyte, running buffer solution A; compared with 40N. As for the experimental part:
(§1) Binding strength is measured using Biacore T100 (manufactured by GE Healthcare). In a method of measurement, the aptamer is first immobilized onto a sensor chip, the amount immobilized being about 1000 RU. 20 μL of a chymase solution for analyte, prepared at 0.2 μM, is injected, and the binding of chymase to the aptamer is detected. An RNA comprising a random nucleotide sequence of 30 or 40 nucleotides is used as a negative control.
(§2) The binding activities against chymase of the nucleic acids shown by SEQ ID NO: 4-20 and 22-34 were determined by the surface plasmon resonance method using Biacore T100 (manufactured by GE Healthcare). The sensor chip used was the SA chip, which had streptavidin immobilized thereon. Bound thereto was about 1500 RU of a 16-nucleotide Poly dT with biotin bound to the 5′ end thereof. […] 20 μL of chymase for analyte, prepared at 0.2 μM, was injected. Solution A was used as a running buffer.
(§3) The binding activities against chymase of the nucleic acids shown by SEQ ID NO: 38-48 were evaluated by the surface plasmon resonance method. In the evaluations for SEQ ID NO: 38-48, measurements were taken in the same manner as Example 1. Solution C was used as a running buffer.
A general note: SPR reads the build-up and loss of mass on a sensor chip optically.
B6: the “Binding activity as determined using Biacore” value (from here on “Binding activity as determined”) is recorded as “higher binding activity than 40N”.
On to B7, for which the “Binding activity as determined” value is recorded as “higher binding activity than 40N”.
Same read-out and setting: with B8 the entry was “higher binding activity than 40N”.

A further data set addresses T3, chymase (recombinant, manufactured by SIGMA). As to the kind of experiment: Chymase inhibitory activity using synthetic substrate Suc-Ala-Ala-Pro-Phe-MCA. The data set is classed as biochemical. The settings on record: Table 3; substrate 100 μM, solution C, 37° C.; mean value for 2 to 3 measurements. In outline: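 Human recombinant chymase (16.7 nM or 1.67 nM final) preincubated 5 min at 37° C., then added to nucleic acid (0.0027–2 μM serial dilutions) and 100 μM substrate in solution C. AMC fluorescence (ex 380/em 460 nm) followed 5 or 30 min at 37° C.; slope gives initial velocity, inhibition versus no-inhibitor control yields IC50.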
Consider B9, for which the IC50 stood at 95 ± 18 nM.
Turning to B10, the IC50 was 60 ± 17 nM.
Still for that read-out and setting: as for B11, the figure is 50 ± 12 nM.
Take B12: the IC50 amounted to 140 ± 85 nM.
The same measure, in the same setting: as for B13, the figure is 58 ± 12 nM.

Another data set concerns the target T2, chymase. The data set is described as follows: Surface plasmon resonance (Biacore T100), aptamer immobilized on SA chip, chymase injected as analyte. Type of data set: binding. Further details: key: ++: a sequence that binds to chymase significantly more strongly than the negative control 30N. The settings on record: Table 2; same manner as Example 1, running buffer solution C; compared with 30N. Here is the method: as §1, §2, §3
With B9, the “Binding activity as determined” value was “++”.
Still for that read-out and setting: as for B10, the entry is “++”.
On the same count and under the same terms, with B11 the entry was “++”; with B12, “++”.
Same read-out and setting: as for B13, the entry is “++”.

The record behind these values is patent publication US9012420B2, “Aptamer for chymase, and use thereof” (Ribomic Inc., priority 2009, dated 2015).
